Laboratory results reported in US20190135928A1 (Bristol-Myers Squibb, published 2019).

Assays:
[1] = target: T1, TL1A expressed on transfected CHO cells (Homo sapiens (Human), UniProt O95150 1-251); test: flow cytometry, titration of the antibody on TL1A CHO cells, PE anti-human IgG (Fc specific) detection
T1 construct: also called TL1A CHO cells; TL1A expressing CHOs cells
T1 sequence: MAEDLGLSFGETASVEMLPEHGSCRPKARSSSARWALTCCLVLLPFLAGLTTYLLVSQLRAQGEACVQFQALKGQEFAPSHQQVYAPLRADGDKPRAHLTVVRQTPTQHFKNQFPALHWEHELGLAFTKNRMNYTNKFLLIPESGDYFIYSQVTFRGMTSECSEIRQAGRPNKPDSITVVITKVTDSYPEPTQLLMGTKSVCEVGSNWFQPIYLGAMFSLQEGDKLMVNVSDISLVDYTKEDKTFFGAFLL
Procedure: (§1) Dilutions of TL1A antibody were incubated with 10⁵ TL1A CHO cells in 100 ul FACS buffer for 1 hr. Cells were washed two times with FACS buffer and antibody binding was detected by staining with PE anti human […] antibody and evaluated by FACS.
(§2) FACS assays were used to verify that antibodies of the disclosure are binding to native TL1A expressed on cells. Briefly, dilutions of antibody in PBS 1% BSA plus 0.5% sodium azide (FACS buffer) were incubated with transfected CHO cells expressing TL1A (10⁵ cells) for 30-60 minutes at 4 C. Cells were washed twice by centrifugation, aspiration of supernatant, and addition of fresh FACS buffer. Antibody binding to TL1A on cells was detected by incubating the cells in PE (Phycoerythrin) labeled goat anti-human IgG (Fc specific) antibody for 30 min at 4C, washing the cells 2× as above, and analyzing by FACS (FIG. 1).

Hu-TL1A-His = target: T2, Hu-TL1A-His (Homo sapiens, UniProt O95150); test: SPR (Biacore), 10A4.F7 captured on a protein G surface, Hu-TL1A-His as analyte at 250, 200, 150, 100 and 50n
T2 construct: recombinant, His-tagged; also called Hu-TL1A-His antigen (Lot#50182AS151)
T2 sequence (ligand chain, looked up): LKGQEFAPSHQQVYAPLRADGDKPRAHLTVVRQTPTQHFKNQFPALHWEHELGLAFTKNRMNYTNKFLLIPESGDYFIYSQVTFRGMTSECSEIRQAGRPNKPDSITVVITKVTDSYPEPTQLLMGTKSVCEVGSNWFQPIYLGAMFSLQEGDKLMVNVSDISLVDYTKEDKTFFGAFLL
Procedure: Protein G chip (CM5) was made by coating it […] using acetate buffer (pH2.9). 10A4.F7 mab (7.5 ug/mL, 12 uL) was captured at 10 uL/min flow rate on Protein G surface. Hu-TL1A-His antigen (Lot#50182AS151) at multiple concentrations (250, 200, 150, 100 & 50n) were flowed over captured mab for 5 min at 25 ul/min and allowed to dissociate for 7.5 min. Protein G surface was regenerated with 10 uL of 50 mM NaOH and 5 uL of 25 mM HCL at 100 uL/min flow rate. Data was analyzed by using Biaevaluation 3.1. (FIG. 3)

[2] = target: T3, soluble TL1A-SH6 protein (his tagged) (Homo sapiens (Human), UniProt O95150 57-251, limits assumed); test: FACS competition: TL1A SH6 at 200 ng/ml pre-incubated with dilutions of 10A4.F7, then added to hDR3 CHO cells, PE anti 6xHis detection
T3 construct: also called TL1A SH6 antigen; not shown: His tag (detected with anti 6xHis antibody)
T3 sequence: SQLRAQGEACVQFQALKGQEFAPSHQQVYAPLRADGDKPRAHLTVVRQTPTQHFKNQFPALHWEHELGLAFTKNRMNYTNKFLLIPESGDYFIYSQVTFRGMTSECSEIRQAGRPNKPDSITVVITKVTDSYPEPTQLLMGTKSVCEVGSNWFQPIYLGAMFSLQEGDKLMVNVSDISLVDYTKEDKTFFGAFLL
Procedure: (§3) TL1A SH6 at 200 ng/ml (50 ul) was incubated with dilutions of 10A4.F7 (50 ul) antibody or control IgG1 antibody (all reagents in FACS buffer). The mixture was incubated for 30 minutes and then added to 10⁵ hDR3 CHO cells in 100 ul of FACS buffer and incubated for 1 hr. Cells were washed twice in FACS buffer and TL1A binding to DR3 CHO cells was detected by staining cells with PE anti 6×His antibody (R&D systems) and evaluated by FACS.
(§4) Identification of anti-TL1A antibodies that block TL1A binding to DR3 were also done by FACS by using soluble TL1A-SH6 protein (his tagged) binding to hDR3 expressed on CHO cells (DR3 CHO). Anti-TL1A or control antibodies were incubated with TL1A SH6 antigen at 0.1-0.5 ug/ml for 30 minutes in FACS buffer and then hDR3 CHO cells were added to the antibody TL1A mix and incubated for 30 minutes. Cells were washed and TL1A binding to hDR3 CHO cells was detected with PE anti-His antibody followed by FACS. Blocking antibodies prevent TL1A SH6 from binding to hDR3 CHO cells (FIG. 2).

[3] = target: T1, TL1A expressed on transfected CHO cells; test: FACS titration on TL1A CHO cells, detection with PE anti-human IgG (Fc specific); the box prints no unit, the axis is IgG (nM)
Procedure: as §1, §2

[4] = target: T3, soluble TL1A-SH6 protein (his tagged); test: FACS, inhibition of the binding of TL1A SH6 (200 ng/ml) to hDR3 CHO cells, detection with PE anti-6xHis; the box prints no unit, the axis is Log nM
Procedure: as §3, §4

B1: monoclonal antibody 10A4.F7 (antibody, V domains shown)
VH: QLQLQESGPGLVKPSETLSLTCTVSGGSISSRSYYWGWIRQPPGKGLEWIGSIYYNGRTYYNPSLKSRVTISVDTSKNQFSLKLSSVTAADTAVYYCAREDYGDYGAFDIWGQGTMVTVSS
VL: AIQLTQSPSSLSASVGDRVTITCRASQGISSALAWYQQKPGKAPKLLIYDASSLESGVPSRFSGSGSGTDFTLTISSLQPEDFATYYCQQFNSYPLTFGGGTKVEIK
notes: Hybridoma subclone of parental clone 10A4 (KM mouse, human IgG kappa); also called TL1A 2596.10A4.F7
EC50 [1]: 0.4 nM
Kd (Hu-TL1A-His): 0.38 nM
koff (Hu-TL1A-His): 2.9e-05 s⁻¹
kon (Hu-TL1A-His): 75000 M⁻¹ s⁻¹
IC50 [2]: 0.524 nM
EC50 [3]: 0.407 nM
IC50 [4]: 0.525 nM
